Like-named read-outs stand apart in the source and are kept apart here.

For experiment [1], the target named is T1, EV71-VLP (virus-like particle) (Enterovirus 71).
T1 construct: Particle of several capsid proteins
In words: Bio-Layer Interferometry, steady state plot (apparent KD).

Experiment [2] addresses T2, SP70 peptide epitope of the EV71 VP1 capsid protein (Enterovirus 71).
T2 construct: 15-amino acid peptide; residues 208-222 counted on VP1
T2 peptide: YPTFGEHKQEKDLEY
Briefly: binding ELISA on SP70 peptide, absorbance at 450 nm. A general note: In an ELISA, binding on a coated surface is turned into a signal by an enzyme label.

The target of experiment [3] is T1, EV71-VLP (virus-like particle). Briefly: binding ELISA on EV71-VLP, absorbance at 450 nm.
Experiment [4] has as its target T2, SP70 peptide epitope of the EV71 VP1 …. In words: binding ELISA on SP70 peptide, OD 650 nm.
Description: (§1) Serial dilutions of antibody variants (starting from ˜100 −g/ml) were added to immobilised EV71-VLP or the SP70 peptide epitope, shaken for one hour at room temperature and washed with PBS-T. Anti-human kappa chain HRP was added and the incubation and washing steps were repeated. TMB/K-Blue substrate was incubated with the reaction for 5-10 minutes at room temperature before the reaction was stopped with H₂SO₄ RED STOP. The optical density was read at 450/650 nm.
Experiment [5] has the same target. In words: isothermal titration calorimetry, observed KA. For orientation: ITC needs no label: the signal is the heat of the interaction.
Excerpt: (§2) KD can be calculated using Gibbs free energy, enthalpy and entropy: ΔG=ΔH−TΔS and ΔG=RT In KD.
The target is the same in experiment [6]. In words: isothermal titration calorimetry, observed KD.
Excerpt: as §2
Experiment [7] shares this target. In words: isothermal titration calorimetry.
For experiment [8] the target is unchanged. Briefly: isothermal titration calorimetry (observed KD); the text paragraph 208 prints 17.1 nM.
Experiment [9] has the same target. In words: binding ELISA on SP70 peptide, absorbance at 450 nm.
Experiment [10] has as its target T1, EV71-VLP (virus-like particle). Briefly: binding ELISA on EV71-VLP, absorbance at 450 nm. This is another data set of the same source.
Experiment [11] addresses T2, SP70 peptide epitope of the EV71 VP1 …. In words: binding ELISA on SP70 peptide, OD 650 nm [upper panel].
Description: as §1
The target is the same in experiment [12]. Briefly: binding ELISA on SP70 peptide, OD 650 nm.
Description: as §1

B1: murine D5 antibody (antibody, V domains shown)
VH: EVQLQQSGAELVKPGASVKLSCTASGFNIKDTYIHWVKQRPEQGLEWIGKIDPANGNTKYDPKFQDKATITADTSSNTAYLQLSSLTSEDTAVYYCANSNYWFDFDYWGQGTTLTVSS
VL: DVLMTQTPLSLPVSLGDQASISCRSSQSIVHSNGNTYLEWYLQKPGQSPKLLIYKVSNRFSGVPDRFSGSGSGTDFTLKISRVEADDVGVYYCYQGSHVPYTFGGGTKLEIK
notes: Mouse monoclonal IgG1 (label mD5 IgG1); also called mD5; mouse D5
For the molecule B1, the Kd in experiment [1] worked out at 1.8 nM. In addition, the EC50 in [2] worked out at 0.3 nM; in experiment [3], 12.7 nM.

B2: chimeric D5 antibody (antibody, V domains shown)
VH: EVQLQQSGAELVKPGASVKLSCTASGFNIKDTYIHWVKQRPEQGLEWIGKIDPANGNTKYDPKFQDKATITADTSSNTAYLQLSSLTSEDTAVYYCANSNYWFDFDYWGQGTTLTVSS
VL: DVLMTQTPLSLPVSLGDQASISCRSSQSIVHSNGNTYLEWYLQKPGQSPKLLIYKVSNRFSGVPDRFSGSGSGTDFTLKISRVEADDVGVYYCYQGSHVPYTFGGGTKLEIK
notes: Human constant regions and murine D5 variable regions, expressed in Expi293 cells; also called chD5; cD5 CHCK
Take B2: the EC50 in experiment [4] is 1.4 nM; in experiment [9], 6.7 nM; in [10], 1.6 nM. This molecule returned a Ka in experiment [5] of 5.66e+07 M⁻¹. Besides, the figures for the Kd in experiment [6], in experiment [8] and in [1] were 17.1 nM, 17.7 nM and 0.2 nM, respectively. The ΔH in [7] was -12.8 kcal/mol. In experiment [7], this molecule gave a ΔS of -7.63 cal/mol/deg.

B3: hEV71 HAKA (antibody, V domains shown)
VH: QVQLVQSGAEVKKPGASVKVSCKASGYTFTDTYIHWVRQAPGQRLEWIGKIDPANGNTKYDPKFQDRVTITRDTSASTAYMELSSLRSEDTAVYYCASSNYWFDFDYWGQGTLVTVSS
VL: DIVMTQSPLSLPVTPGEPASISCRSSQSIVHSNGNTYLEWYLQKPGQSPQLLIYKVSNRFSGVPDRFSGSGSGTDFTLKISRVEAEDVGVYYCYQGSHVPYTFGGGTKVEIK
notes: Variable domains only; cloned into pHuG1 and pHuK (human IgG / kappa) vectors, expressed in Expi293 cells
For the molecule B3, the binding result in experiment [11] is “binds”.

B4: hEV71 HPKA (antibody, V domains shown)
VH: QVQLVQSGAEVKKPGASVKVSCKASGYTFTDTYIHWVRQAPGQRLEWIGKIDPANGNTKYDPKFQDKVTITRDTSASTAYMELSSLRSEDTAVYYCANSNYWFDFDYWGQGTLVTVSS
VL: DIVMTQSPLSLPVTPGEPASISCRSSQSIVHSNGNTYLEWYLQKPGQSPQLLIYKVSNRFSGVPDRFSGSGSGTDFTLKISRVEAEDVGVYYCYQGSHVPYTFGGGTKVEIK
notes: Variable domains only
Turning to B4, the midpoint of the response in [4], the EC50, lay at 67.7 nM. This lies in the double-digit nanomolar range.

B5: hEV71 HCKA (antibody, V domains shown)
VH: QVQLVQSGAEVKKPGASVKVSCKASGFTFTDTYIHWVRQAPGQRLEWIGKIDPANGNTKYDPKFQDRVTITRDTSASTAYMELSSLRSEDTAVYYCASSNYWFDFDYWGQGTLVTVSS
VL: DIVMTQSPLSLPVTPGEPASISCRSSQSIVHSNGNTYLEWYLQKPGQSPQLLIYKVSNRFSGVPDRFSGSGSGTDFTLKISRVEAEDVGVYYCYQGSHVPYTFGGGTKVEIK
notes: Variable domains only; pHuG1 / pHuK vectors
For the molecule B5, the binding result in [12] is listed as “binds”.

B6: hEV71 HJKA (antibody, V domains shown)
VH: QVQLVQSGAEVKKPGASVKVSCKASGYTFTDTYIHWVRQAPGQRLEWIGKIDPANGNTKYDPKFQDRVTITRDTSASTAYMELSSLRSEDTAVYYCANSNYWFDFDYWGQGTLVTVSS
VL: DIVMTQSPLSLPVTPGEPASISCRSSQSIVHSNGNTYLEWYLQKPGQSPQLLIYKVSNRFSGVPDRFSGSGSGTDFTLKISRVEAEDVGVYYCYQGSHVPYTFGGGTKVEIK
notes: as for B5
As for B6, in experiment [12], the binding result is recorded as “binds”.

B7: hEV71 HNKA (antibody, V domains shown)
VH: QVQLVQSGAEVKKPGASVKVSCKASGFNIKDTYIHWVKQAPGQRLEWIGKIDPANGNTKYDPKFQDKATITADTSASTAYMELSSLRSEDTAVYYCANSNYWFDFDYWGQGTLVTVSS
VL: DIVMTQSPLSLPVTPGEPASISCRSSQSIVHSNGNTYLEWYLQKPGQSPQLLIYKVSNRFSGVPDRFSGSGSGTDFTLKISRVEAEDVGVYYCYQGSHVPYTFGGGTKVEIK
notes: Variable domains only
As for B7, the EC50 in [4] was determined as 1.35 nM. That is a single-digit nanomolar value.

B8: hEV71 HFKA (antibody, V domains shown)
VH: QVQLVQSGAEVKKPGASVKVSCKASGYTFKDTYIHWVRQAPGQRLEWIGKIDPANGNTKYDPKFQDRVTITRDTSASTAYMELSSLRSEDTAVYYCASSNYWFDFDYWGQGTLVTVSS
VL: DIVMTQSPLSLPVTPGEPASISCRSSQSIVHSNGNTYLEWYLQKPGQSPQLLIYKVSNRFSGVPDRFSGSGSGTDFTLKISRVEAEDVGVYYCYQGSHVPYTFGGGTKVEIK
notes: Named only within the range hEV71 HCKA to hEV71 HJKA; Variable domains only
On to B8, for which the binding result in experiment [12] was “binds”.

B9: hEV71 HQKA (antibody, V domains shown)
VH: QVQLVQSGAEVKKPGASVKVSCTASGFNIKDTYIHWVKQAPGQRLEWIGKIDPANGNTKYDPKFQDKATITADTSANTAYMELSSLRSEDTAVYYCANSNYWFDFDYWGQGTLVTVSS
VL: DIVMTQSPLSLPVTPGEPASISCRSSQSIVHSNGNTYLEWYLQKPGQSPQLLIYKVSNRFSGVPDRFSGSGSGTDFTLKISRVEAEDVGVYYCYQGSHVPYTFGGGTKVEIK
notes: Variable domains only
As for B9, a half-maximal effect in experiment [4] (EC50) was put at 1.09 nM. In other words, the single-digit nanomolar range.

B10: hEV71 HBKA (antibody, V domains shown)
VH: QVQLVQSGAEVKKPGASVKVSCKASGFNIKDTYIHWVRQAPGQRLEWIGKIDPANGNTKYDPKFQDKATITADTSASTAYMELSSLRSEDTAVYYCANSNYWFDFDYWGQGTLVTVSS
VL: DIVMTQSPLSLPVTPGEPASISCRSSQSIVHSNGNTYLEWYLQKPGQSPQLLIYKVSNRFSGVPDRFSGSGSGTDFTLKISRVEAEDVGVYYCYQGSHVPYTFGGGTKVEIK
notes: as for B5
With B10, the midpoint of the response in experiment [4], the EC50, lay at 1.62 nM.

B11: hEV71 HDKA (antibody, V domains shown)
VH: QVQLVQSGAEVKKPGASVKVSCKASGYNFTDTYIHWVRQAPGQRLEWIGKIDPANGNTKYDPKFQDRVTITRDTSASTAYMELSSLRSEDTAVYYCASSNYWFDFDYWGQGTLVTVSS
VL: DIVMTQSPLSLPVTPGEPASISCRSSQSIVHSNGNTYLEWYLQKPGQSPQLLIYKVSNRFSGVPDRFSGSGSGTDFTLKISRVEAEDVGVYYCYQGSHVPYTFGGGTKVEIK
notes: Variable domains only
For the molecule B11, the binding result in experiment [12] is recorded as “binds”.

B12: hEV71 HGKA (antibody, V domains shown)
VH: QVQLVQSGAEVKKPGASVKVSCKASGYTFTDTYIHWVRQAPGQRLEWIGKIDPANGNTKYDPKFQDKVTITRDTSASTAYMELSSLRSEDTAVYYCASSNYWFDFDYWGQGTLVTVSS
VL: DIVMTQSPLSLPVTPGEPASISCRSSQSIVHSNGNTYLEWYLQKPGQSPQLLIYKVSNRFSGVPDRFSGSGSGTDFTLKISRVEAEDVGVYYCYQGSHVPYTFGGGTKVEIK
notes: as for B8
B12: in [12], the binding result was “binds”.

B13: hEV71 HAKB (antibody, V domains shown)
VH: QVQLVQSGAEVKKPGASVKVSCKASGYTFTDTYIHWVRQAPGQRLEWIGKIDPANGNTKYDPKFQDRVTITRDTSASTAYMELSSLRSEDTAVYYCASSNYWFDFDYWGQGTLVTVSS
VL: DVLMTQSPLSLPVTPGEPASISCRSSQSIVHSNGNTYLEWYLQKPGQSPQLLIYKVSNRFSGVPDRFSGSGSGTDFTLKISRVEAEDVGVYYCYQGSHVPYTFGGGTKVEIK
notes: as for B5
For the molecule B13, the binding result in experiment [11] was “binds”.

B14: hEV71 HIKA (antibody, V domains shown)
VH: QVQLVQSGAEVKKPGASVKVSCKASGYTFTDTYIHWVRQAPGQRLEWIGKIDPANGNTKYDPKFQDRVTITADTSASTAYMELSSLRSEDTAVYYCASSNYWFDFDYWGQGTLVTVSS
VL: DIVMTQSPLSLPVTPGEPASISCRSSQSIVHSNGNTYLEWYLQKPGQSPQLLIYKVSNRFSGVPDRFSGSGSGTDFTLKISRVEAEDVGVYYCYQGSHVPYTFGGGTKVEIK
notes: as for B8
With B14, the binding result in experiment [12] is “binds”.

B15: hEV71 HHKA (antibody, V domains shown)
VH: QVQLVQSGAEVKKPGASVKVSCKASGYTFTDTYIHWVRQAPGQRLEWIGKIDPANGNTKYDPKFQDRATITRDTSASTAYMELSSLRSEDTAVYYCASSNYWFDFDYWGQGTLVTVSS
VL: DIVMTQSPLSLPVTPGEPASISCRSSQSIVHSNGNTYLEWYLQKPGQSPQLLIYKVSNRFSGVPDRFSGSGSGTDFTLKISRVEAEDVGVYYCYQGSHVPYTFGGGTKVEIK
notes: as for B8
As for B15, the binding result in experiment [12] is listed as “binds”.

B16: hEV71 HEKA (antibody, V domains shown)
VH: QVQLVQSGAEVKKPGASVKVSCKASGYTITDTYIHWVRQAPGQRLEWIGKIDPANGNTKYDPKFQDRVTITRDTSASTAYMELSSLRSEDTAVYYCASSNYWFDFDYWGQGTLVTVSS
VL: DIVMTQSPLSLPVTPGEPASISCRSSQSIVHSNGNTYLEWYLQKPGQSPQLLIYKVSNRFSGVPDRFSGSGSGTDFTLKISRVEAEDVGVYYCYQGSHVPYTFGGGTKVEIK
notes: as for B8
For the molecule B16, the binding result in experiment [12] was “binds”.

As usually defined, the EC50 is the concentration that produces a half-maximal response. Higher therefore signals a need for much substance.

(Values after patent publication US20200317753A1 (LIFEARC, published 2020).)
